Experimental data from patent publication US20140199302A1 (GENERAL HOSPITAL, published 2014).

Experiments:
[1] = molecular target: T1, soluble human hemojuvelin with a HIS-tag (HJV.His) (human, UniProt Q6ZVN8 36-400, limits assumed); experiment: SPR (Biacore), human BMP6 amine-coupled on CM5 chip, one-site univalent fit model; monomeric HJV.His; one-site univalent fit
T1 construct: also called monomeric HJV.His; not shown: HIS-tag
T1 sequence (looked up): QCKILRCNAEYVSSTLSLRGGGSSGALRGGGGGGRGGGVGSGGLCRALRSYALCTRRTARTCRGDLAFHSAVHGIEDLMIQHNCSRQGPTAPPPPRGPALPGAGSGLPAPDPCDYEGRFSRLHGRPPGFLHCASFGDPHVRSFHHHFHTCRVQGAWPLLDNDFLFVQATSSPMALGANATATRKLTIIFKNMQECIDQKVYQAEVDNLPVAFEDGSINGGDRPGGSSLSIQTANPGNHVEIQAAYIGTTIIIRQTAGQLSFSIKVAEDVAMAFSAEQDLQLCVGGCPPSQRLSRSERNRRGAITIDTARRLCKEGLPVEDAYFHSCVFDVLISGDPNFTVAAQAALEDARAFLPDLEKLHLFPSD

[2] = molecular target: T1, soluble human hemojuvelin with a …; experiment: Biacore SPR, HJV.His in solution over human BMP6 immobilized on a CM5 chip by amine coupling; 1:1 binding fit (Chi2 9.32 printed beside it)

- Kd [1]: ~33 nM
- Kd [2]: 36 nM
B1: human BMP6 (ligand, UniProt P22004 382-513, looked up)
chain: QQSRNRSTQSQDVARVSSASDYNSSELKTACRKHELYVSFQDLGWQDWIIAPKGYAANYCDGECSFPLNAHMNATNHAIVQTLVHLMNPEYVPKPCCAPTKLNAISVLYFDDNSNVILKKYRNMVVRACGCH
notes: also called bone morphogenic protein-6
